Assay results published in article PMC3605678.

Target: ERK5ΔC385–399 (human) (UniProt Q13164)
Assay: fluorescence polarisation

Chain of MKK5 PB1-D construct (16–130), unlabeled (Q13163 16-130): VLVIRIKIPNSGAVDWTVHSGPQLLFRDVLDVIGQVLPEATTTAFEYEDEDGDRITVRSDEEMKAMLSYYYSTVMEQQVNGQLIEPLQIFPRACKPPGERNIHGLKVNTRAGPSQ

Substance: MKK5 PB1-D construct (16–130), unlabeled (from UniProt Q13163 16-130) (domain or fragment)
- fold reduction of binding affinity against the wild-type pair: 20 fold
